Results published in paper PMC8989981, “Negative feedback of SNRK to circ-SNRK regulates cardiac function post-myocardial infarction” (Cell Death and Differentiation, 2021).

Target: the molecule itself
Assay: native gel or EMSA; Native-PAGE of total protein from NRCMs, blotted with anti-NOVA1

B1: NOVA1 (NOVA alternative splicing regulator 1) (natural protein, rat (endogenous in NRCMs), UniProt Q80WA4 1-474, looked up)
chain: MAAAPIQQNGTHTGVPIDLDPPDSRKRPLEAPPEAGSTKRTNTGEDGQYFLKVLIPSYAAGSIIGKGGQTIVQLQKETGATIKLSKSKDFYPGTTERVCLIQGTIEALNAVHGFIAEKIREMPQNVAKTEPVSILQPQTTVNPDRIKQVKIIVPNSTAGLIIGKGGATVKAIMEQSGAWVQLSQKPDGINLQERVVTVSGEPEQNRKAVELIIQKIQEDPQSGSCLNISYANVTGPVANSNPTGFPYANTAEVLPTAAAAAGLLGHANLAGVAAFPAVLSGFTGNDLVAITSALNTLASYGYNLNTLGLGLSQAAATGALAAAAASANPAAAAANLLATYASEASASGSTAGGTAGTFALGSLAAATAATNGYFGAASPLAASAILGTEKSTDGSKDVVEIAVPENLVGAILGKGGKTLVEYQELTGARIQISKKGEFVPGTRNRKVTITGTPAATQAAQYLITQRITYEQGVR
notes: NOVA1 (NOVA alternative splicing regulator 1), rat, as present in neonatal rat cardiomyocytes; also called protein NOVA1; source: endogenous, NRCMs (neonatal rat cardiomyocytes), in lysate / total protein
  stoichiometry N: 2
